Biological target: F-actin (actin filaments from rabbit skeletal muscle actin) (rabbit), P68135
Experiment: single-molecule TIRF microscopy
Conditions: remark: other sources report otherwise

- fold landing frequency on F-actin against mN2G^SR: 20 fold
B1: utrophin N-terminal fragment (amino acids 1 to 261)-sfGFP-6xHis, P46939 1-261 (domain or fragment)
chain: MAKYGEHEASPDNGQNEFSDIIKSRSDEHNDVQKKTFTKWINARFSKSGKPPINDMFTDLKDGRKLLDLLEGLTGTSLPKERGSTRVHALNNVNRVLQVLHQNNVELVNIGGTDIVDGNHKLTLGLLWSIILHWQVKDVMKDVMSDLQQTNSEKILLSWVRQTTRPYSQVNVLNFTTSWTDGLAFNAVLHRHKPDLFSWDKVVKMSPIERLEHAFSKAQTYLGIEKLLDPEDVAVQLPDKKSIIMYLTSLFEVLPQQVTID
modifications: here or on the partner: 30% DyLight-650 NHS ester-labelled and optionally 5% biotinylated (EZ-Link NHS-PEG4-biotin) actin

From paper PMC11844729
